Paper PMC10397247

Assays:
Test in all cases: two-hybrid library CCmax;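 also: natural log of median RNA to DNA barcode read ratio; higher means stronger binding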
4H3417-AA = target: T1, 4H3417-AA
T1 chain: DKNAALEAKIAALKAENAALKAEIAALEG

4H3446-AA = target: T2, 4H3446-AA; settings: mean of both orientations
T2 chain: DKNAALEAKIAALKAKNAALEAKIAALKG

4H3591-AA = target: T3, 4H3591-AA; settings: mean of both orientations
T3 chain: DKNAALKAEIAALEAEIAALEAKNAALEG

4H3628-AA = target: T4, 4H3628-AA; settings: mean of both orientations
T4 chain: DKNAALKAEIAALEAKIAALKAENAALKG

4H3666-AA = target: T5, 4H3666-AA; settings: mean of both orientations
T5 chain: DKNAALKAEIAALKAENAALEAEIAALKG

4H3709-AA = target: T6, 4H3709-AA; settings: mean of both orientations
T6 chain: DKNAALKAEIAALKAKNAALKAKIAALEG

4H391-AA = target: T7, 4H391-AA; settings: mean of both orientations
T7 chain: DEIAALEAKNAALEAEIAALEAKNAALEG

4H3920-AA = target: T8, 4H3920-AA; settings: mean of both orientations
T8 chain: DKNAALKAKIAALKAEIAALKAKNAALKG

4H3939-AA = target: T9, 4H3939-AA; settings: mean of both orientations
T9 chain: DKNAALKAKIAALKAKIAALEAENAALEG

4H428-AA = target: T10, 4H428-AA; settings: mean of both orientations
T10 chain: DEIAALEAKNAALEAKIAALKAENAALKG

4H478-AA = target: T11, 4H478-AA; settings: mean of both orientations
T11 chain: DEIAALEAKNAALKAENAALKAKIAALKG

4H497-AA = target: T12, 4H497-AA; settings: mean of both orientations
T12 chain: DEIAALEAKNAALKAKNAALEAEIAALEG

4H656-AA = target: T13, 4H656-AA; settings: mean of both orientations
T13 chain: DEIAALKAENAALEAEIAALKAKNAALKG

4H675-AA = target: T14, 4H675-AA; settings: mean of both orientations
T14 chain: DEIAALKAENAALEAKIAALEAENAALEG

4H971-AA = target: T15, 4H971-AA; settings: mean of both orientations
T15 chain: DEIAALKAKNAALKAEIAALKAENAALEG

4H2617-AA = target: T16, 4H2617-AA
T16 chain: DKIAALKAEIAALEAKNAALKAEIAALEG

4H2642-AA = target: T17, 4H2642-AA; settings: mean of both orientations
T17 chain: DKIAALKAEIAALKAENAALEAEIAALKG

4H2729-AA = target: T18, 4H2729-AA; settings: mean of both orientations
T18 chain: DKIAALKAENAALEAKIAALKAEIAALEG

4H2754-AA = target: T19, 4H2754-AA; settings: mean of both orientations
T19 chain: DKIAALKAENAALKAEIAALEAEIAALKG

4H2837-AA = target: T20, 4H2837-AA; settings: mean of both orientations
T20 chain: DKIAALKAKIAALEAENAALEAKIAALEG

4H2883-AA = target: T21, 4H2883-AA; settings: mean of both orientations
T21 chain: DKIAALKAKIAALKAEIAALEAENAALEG

4H2944-AA = target: T22, 4H2944-AA; settings: mean of both orientations
T22 chain: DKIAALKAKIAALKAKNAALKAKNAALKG

4H2949-AA = target: T23, 4H2949-AA; settings: mean of both orientations
T23 chain: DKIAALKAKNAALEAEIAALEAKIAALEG

4H3112-AA = target: T24, 4H3112-AA
T24 chain: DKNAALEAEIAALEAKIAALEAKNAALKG

4H317-AA = target: T25, 4H317-AA; settings: mean of both orientations
T25 chain: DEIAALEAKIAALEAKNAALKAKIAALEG

4H3343-AA = target: T26, 4H3343-AA; settings: mean of both orientations
T26 chain: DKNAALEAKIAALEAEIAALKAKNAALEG

4H335-AA = target: T27, 4H335-AA; settings: mean of both orientations
T27 chain: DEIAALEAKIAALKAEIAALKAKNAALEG

4H342-AA = target: T28, 4H342-AA; settings: mean of both orientations
T28 chain: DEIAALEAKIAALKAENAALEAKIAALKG

4H3427-AA = target: T29, 4H3427-AA; settings: mean of both orientations
T29 chain: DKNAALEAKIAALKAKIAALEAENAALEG

4H3606-AA = target: T30, 4H3606-AA; settings: mean of both orientations
T30 chain: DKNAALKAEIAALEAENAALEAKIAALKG

4H3627-AA = target: T31, 4H3627-AA; settings: mean of both orientations
T31 chain: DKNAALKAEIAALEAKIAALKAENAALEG

4H3655-AA = target: T32, 4H3655-AA; settings: mean of both orientations
T32 chain: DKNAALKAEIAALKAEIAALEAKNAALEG

4H3844-AA = target: T33, 4H3844-AA; settings: mean of both orientations
T33 chain: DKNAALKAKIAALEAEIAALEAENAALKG

4H3921-AA = target: T34, 4H3921-AA; settings: mean of both orientations
T34 chain: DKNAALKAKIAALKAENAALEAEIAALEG

4H429-AA = target: T35, 4H429-AA; settings: mean of both orientations
T35 chain: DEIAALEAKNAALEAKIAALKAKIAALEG

4H454-AA = target: T36, 4H454-AA; settings: mean of both orientations
T36 chain: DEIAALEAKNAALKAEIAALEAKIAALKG

4H48-AA = target: T37, 4H48-AA; settings: mean of both orientations
T37 chain: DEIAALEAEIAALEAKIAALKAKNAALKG

4H566-AA = target: T38, 4H566-AA; settings: mean of both orientations
T38 chain: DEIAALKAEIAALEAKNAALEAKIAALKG

4H605-AA = target: T39, 4H605-AA; settings: mean of both orientations
T39 chain: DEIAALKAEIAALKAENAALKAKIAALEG

4H678-AA = target: T40, 4H678-AA; settings: mean of both orientations
T40 chain: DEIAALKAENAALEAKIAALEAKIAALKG

4H717-AA = target: T41, 4H717-AA; settings: mean of both orientations
T41 chain: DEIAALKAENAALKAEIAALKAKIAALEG

4H780-AA = target: T42, 4H780-AA; settings: mean of both orientations
T42 chain: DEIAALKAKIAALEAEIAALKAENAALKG

4H794-AA = target: T43, 4H794-AA; settings: mean of both orientations
T43 chain: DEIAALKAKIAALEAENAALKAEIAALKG

4H881-AA = target: T44, 4H881-AA; settings: mean of both orientations
T44 chain: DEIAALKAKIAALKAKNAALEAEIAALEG

4H906-AA = target: T45, 4H906-AA; settings: mean of both orientations
T45 chain: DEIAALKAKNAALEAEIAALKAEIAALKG

4H993-AA = target: T46, 4H993-AA; settings: mean of both orientations
T46 chain: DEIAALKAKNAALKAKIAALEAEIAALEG

B1: 4H3417-AA (peptide)
chain: DKNAALEAKIAALKAENAALKAEIAALEG
- interaction score (4H3417-AA): 0.336
- interaction score (4H3446-AA): -0.679
- interaction score (4H3591-AA): -1.37
- interaction score (4H3628-AA): -1.29
- interaction score (4H3666-AA): 1.09
- interaction score (4H3709-AA): -0.223
- interaction score (4H391-AA): -1.68
- interaction score (4H3920-AA): -1.61
- interaction score (4H3939-AA): -1.87
- interaction score (4H428-AA): -0.935
- interaction score (4H478-AA): 0.524
- interaction score (4H497-AA): -1.9
- interaction score (4H656-AA): 0.318
- interaction score (4H675-AA): -0.587
- interaction score (4H971-AA): -1.03

B2: 4H2617-AA (peptide)
chain: DKIAALKAEIAALEAKNAALKAEIAALEG
- interaction score (4H2617-AA): 1.29
- interaction score (4H2642-AA): 2.25
- interaction score (4H2729-AA): 2.54
- interaction score (4H2754-AA): -1.08
- interaction score (4H2837-AA): 2.22
- interaction score (4H2883-AA): -1.02
- interaction score (4H2944-AA): -0.31
- interaction score (4H2949-AA): 1.53
- interaction score (4H3112-AA): -1.06
- interaction score (4H317-AA): 1.65
- interaction score (4H3343-AA): -1.31
- interaction score (4H335-AA): 0.00978
- interaction score (4H342-AA): 2.32
- interaction score (4H3427-AA): -0.774
- interaction score (4H3606-AA): 2.03
- interaction score (4H3627-AA): 0.895
- interaction score (4H3655-AA): -1.76
- interaction score (4H3844-AA): -1.39
- interaction score (4H3921-AA): 0.979
- interaction score (4H429-AA): 0.393
- interaction score (4H454-AA): 2.09
- interaction score (4H48-AA): -0.511
- interaction score (4H566-AA): 2.42
- interaction score (4H605-AA): 0.918
- interaction score (4H678-AA): 0.485
- interaction score (4H717-AA): -2.09
- interaction score (4H780-AA): -1.9
- interaction score (4H794-AA): 1.15
- interaction score (4H881-AA): 1.37
- interaction score (4H906-AA): -0.74
- interaction score (4H993-AA): -0.54
